Measured values published in IntAct's records for PubMed 17277084.

B1: Serine/threonine-protein kinase PBS1 (Arabidopsis thaliana (Mouse-ear cress)), Q9FE20 (parent)
chain: MGCFSCFDSSDDEKLNPVDESNHGQKKQSQPTVSNNISGLPSGGEKLSSKTNGGSKRELLLPRDGLGQIAAHTFAFRELAAATMNFHPDTFLGEGGFGRVYKGRLDSTGQVVAVKQLDRNGLQGNREFLVEVLMLSLLHHPNLVNLIGYCADGDQRLLVYEFMPLGSLEDHLHDLPPDKEALDWNMRMKIAAGAAKGLEFLHDKANPPVIYRDFKSSNILLDEGFHPKLSDFGLAKLGPTGDKSHVSTRVMGTYGYCAPEYAMTGQLTVKSDVYSFGVVFLELITGRKAIDSEMPHGEQNLVAWARPLFNDRRKFIKLADPRLKGRFPTRALYQALAVASMCIQEQAATRPLIADVVTALSYLANQAYDPSKDDSRRNRDERGARLITRNDDGGGSGSKFDLEGSEKEDSPRETARILNRDINRERAVAEAKMWGESLREKRRQSEQGTSESNSTG
partner: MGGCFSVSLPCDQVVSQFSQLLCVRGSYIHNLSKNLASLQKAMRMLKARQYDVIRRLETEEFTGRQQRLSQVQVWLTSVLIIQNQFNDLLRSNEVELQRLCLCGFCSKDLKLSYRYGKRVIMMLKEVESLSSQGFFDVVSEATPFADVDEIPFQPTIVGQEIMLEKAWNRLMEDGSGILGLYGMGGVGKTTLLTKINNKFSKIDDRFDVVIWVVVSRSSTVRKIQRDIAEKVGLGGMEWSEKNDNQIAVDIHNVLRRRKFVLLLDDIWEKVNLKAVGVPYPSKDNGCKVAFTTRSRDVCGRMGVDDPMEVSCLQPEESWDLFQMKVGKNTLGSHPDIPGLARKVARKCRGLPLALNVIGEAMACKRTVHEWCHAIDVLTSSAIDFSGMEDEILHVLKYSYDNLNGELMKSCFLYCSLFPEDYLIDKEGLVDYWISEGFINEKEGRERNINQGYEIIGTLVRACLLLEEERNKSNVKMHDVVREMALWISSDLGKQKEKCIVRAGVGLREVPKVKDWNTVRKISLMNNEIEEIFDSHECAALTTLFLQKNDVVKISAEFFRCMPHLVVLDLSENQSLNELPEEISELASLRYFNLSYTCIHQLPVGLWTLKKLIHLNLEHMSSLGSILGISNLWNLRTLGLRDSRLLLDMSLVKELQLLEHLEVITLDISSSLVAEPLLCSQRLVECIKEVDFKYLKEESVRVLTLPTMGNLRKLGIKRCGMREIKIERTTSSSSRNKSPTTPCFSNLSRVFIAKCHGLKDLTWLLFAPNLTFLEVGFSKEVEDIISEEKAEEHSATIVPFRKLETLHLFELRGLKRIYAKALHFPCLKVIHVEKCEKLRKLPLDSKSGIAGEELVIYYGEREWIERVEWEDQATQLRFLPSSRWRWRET

Variants of: B1
Details: with rps5_arath RPS5, O64973

Variant | effect of a mutation on the interaction
MGCFSCFDSSDDEKLNPVDESNHGQKKQSQPTVSNNISGLPSGGEKLSSKTNGGSKRELLLPRDGLGQIAAHTFAFRELAAATMNFHPDTFLGEGGFGRVYKGRLDSTGQVVAVKQLDRNGLQGNREFLVEVLMLSLLHHPNLVNLIGYCADGDQRLLVYEFMPLGSLEDHLHDLPPDKEALDWNMRMKIAAGAAKGLEFLHDKANPPVIYRDFKSSNILLDEGFHPKLSDFGLAKLGPTGDKSHVSTRVMRTYGYCAPEYAMTGQLTVKSDVYSFGVVFLELITGRKAIDSEMPHGEQNLVAWARPLFNDRRKFIKLADPRLKGRFPTRALYQALAVASMCIQEQAATRPLIADVVTALSYLANQAYDPSKDDSRRNRDERGARLITRNDDGGGSGSKFDLEGSEKEDSPRETARILNRDINRERAVAEAKMWGESLREKRRQSEQGTSESNSTG [G252R] | disrupting interaction strength
MGCFSCFDSSDDEKLNPVDESNHGQKKQSQPTVSNNISGLPSGGEKLSSKTNGGSKRELLLPRDGLGQIAAHTFAFRELAAATMNFHPDTFLGEGGFGRVYKGRLDSTGQVVAVNQLDRNGLQGNREFLVEVLMLSLLHHPNLVNLIGYCADGDQRLLVYEFMPLGSLEDHLHDLPPDKEALDWNMRMKIAAGAAKGLEFLHDKANPPVIYRDFKSSNILLDEGFHPKLSDFGLAKLGPTGDKSHVSTRVMGTYGYCAPEYAMTGQLTVKSDVYSFGVVFLELITGRKAIDSEMPHGEQNLVAWARPLFNDRRKFIKLADPRLKGRFPTRALYQALAVASMCIQEQAATRPLIADVVTALSYLANQAYDPSKDDSRRNRDERGARLITRNDDGGGSGSKFDLEGSEKEDSPRETARILNRDINRERAVAEAKMWGESLREKRRQSEQGTSESNSTG [K115N] | disrupting interaction strength
